Reference: paper PMC3218234

Columns and labels:
Assay in all cases: SPR
Settings in all cases: remark: other sources report otherwise
[1] = molecular target: human IgG1-Fc homodimer glycoform Fc-1 (bisecting-GlcNAc-Man3GlcNAc2) (human)
[2] = molecular target: human IgG1-Fc homodimer glycoform Fc-5 (Man3GlcNAc2) (human)
[3] = molecular target: wild type recombinant human IgG1-Fc homodimer carrying fucosylated complex type N-glycans (CT-Fc) (human)

B1: FcγRIIb, P31994 43-310 (receptor)
chain: TPAAPPKAVLKLEPQWINVLQEDSVTLTCRGTHSPESDSIQWFHNGNLIPTHTQPSYRFKANNNDSGEYTCQTGQTSLSDPVHLTVLSEWLVLQTPHLEFQEGETIVLRCHSWKDKPLVKVTFFQNGKSKKFSRSDPNFSIPQANHSHSGDYHCTGNIGYTLYSSKPVTITVQAP
modifications: not checked
[1]
  Kd: 2200 nM
[2]
  Kd: 2900 nM
[3]
  Kd: 2100 nM
